Residue numbers refer to the chain shown, from its start.
B1: SIL-2E7 (antibody, V domains shown)
VH: EVQLVESGGGLVQAGGSLRLSCAASGRTFSKNTMGWFRQAPGKEREFVAAISWSVGSTYYGDSVNGRFTISRDDAKNTVYLQMNSLKPEDTAIYYCAADSSHYMLHPELREYDYWGQGTQVTVSS
B2: SIL-3B7 (antibody, V domains shown)
VH: EVQLVESGGGLVQAGGSLRLSCAASARTFSNYAMGWFRQAPGKEREFVAGISWSGGYTSYADSVKGRFTISRDNAKNTVALEMNSLKPEDTAVYYCAAEGVIDELPIKTMRYEYDYWGQGTQVTVSS
B3: SIL-2E4 (antibody, V domains shown)
VH: EVQLVESGGGLVQPGGSLRLSCAASGSIFDDHAIGWFRQAPGKEREGVSSIMTSDDSTHYADSVKGRFTISRDKAKNTVYLQMNNLKPEDTAVYYCAATDVFGLQYSSFLKSYEYDYWGQGTQVTVSS
B4: SIL-3B6 (antibody, V domains shown)
VH: B3 VH with I70V, N85D
B5: SIL-2D1 (antibody, V domains shown)
VH: EVQLVESGGGSVQPGGSLRLSCAASGFTLADESSGWFRQAPGKEREGVSCISITDGITYYADSVKGRFTISRDNAKNTLYLQMNSLKPEDTAVYYCATGNPYCSGHAGTEYDDWGQGTQVTVSS
B6: SIL-3E7 (antibody, V domains shown)
VH: EVQLVESGGGLVQAGGSLRLSCAASARTFSNYALGWFRQVPGKEREFVAGITWSGDNTYYADSVKDRFTISRDNAKNTVWLQMNSLRPEDTAVYICAAEAVLEDKVAVSTMRYEYDYWGQGTQVTVSS
B7: SIL-2D8 (antibody, V domains shown)
VH: EVQLVESGGGLVQAGGSLRLSCTASGHNADTYAMGWFRQAPGKEREFVTGISWTGVGTYIADSVKGRFTISRDNAKNTVYLQMNSLKPEDTAVYRCAAGSDYSDSHYDKSYEYDYWGQGTQVTVSS
B8: SIL-2F5 (antibody, V domains shown)
VH: B7 VH with T23A, H27R, N28A, A40S, K43S, E44R, V56S, I60Y, N74T, R95Y

target: IL6 (human, UniProt P05231); assay: ELISA, apparent
Sequence (P05231 30-212): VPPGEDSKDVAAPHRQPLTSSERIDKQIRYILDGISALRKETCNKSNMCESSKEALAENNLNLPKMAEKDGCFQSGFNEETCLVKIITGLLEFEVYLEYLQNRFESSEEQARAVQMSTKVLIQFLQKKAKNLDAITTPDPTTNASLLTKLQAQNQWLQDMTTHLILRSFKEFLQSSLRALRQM

Kd	Binder
2 nM	B1
> 1000 nM	B2
> 1000 nM	B3
20 nM	B4
80 nM	B5
> 1000 nM	B6
5 nM	B7
1 nM	B8

Source: patent US20260356933 (published 2026)
